This passage reports 293T-PD1 (%) results from US20250002581A1.

Test [1] has as its target PD1 (human) (UniProt Q15116). The test is described as follows: flow cytometry on 293T-PD1 cells, antibody 10 ng/ml; average ± deviation. (A flow cytometer gives signals particle by particle.)
Test [2] deals with PD1 (human) (UniProt Q15116). The experiment in a line: flow cytometry on 293T-PD1 cells, antibody 10 ng/ml, second anti-human Fc antibody; the filing calls this staining non-specific.
PD1 (human), sequence (Q15116 25-288): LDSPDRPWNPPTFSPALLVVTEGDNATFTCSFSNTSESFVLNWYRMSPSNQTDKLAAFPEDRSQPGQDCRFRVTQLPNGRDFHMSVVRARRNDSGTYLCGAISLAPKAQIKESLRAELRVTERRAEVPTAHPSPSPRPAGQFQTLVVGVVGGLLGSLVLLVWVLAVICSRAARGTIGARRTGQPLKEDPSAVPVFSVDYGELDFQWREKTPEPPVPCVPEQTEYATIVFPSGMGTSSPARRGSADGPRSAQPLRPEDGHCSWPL

B1: murine CH101 (antibody, V domains shown)
VH: EVQLEESGPDLVKPSQSLSLTCTVTGYSITSGFAWHWLRQFPGNRLEWMGYIHYSGSTNYNPSLKSRISITRDTSKNQFFLQLNSVTTEDTATFYCARSDFWGQGTFVTVSS
VL: DVVMTQTPLNLSVTFGQPVSISCTSSQSLLDRDGETFMNWLFQRPGQSPKRLIYLVSKLDFGVPDRFTGSGSGTDFTLKISRVEAEDLGIYYCWQGTHFPLTFGGGTKLEIK
In the case of B1, in test [1], the 293T-PD1 (%) amounted to 3.15%.

B2: CH101-huIgG1(L/S) (antibody, not shown: a dimerising Fc or GST)
heavy: EVQLEESGPDLVKPSQSLSLTCTVTGYSITSGFAWHWLRQFPGNRLEWMGYIHYSGSTNYNPSLKSRISITRDTSKNQFFLQLNSVTTEDTATFYCARSDFWGQGTFVTVSS
light: DVVMTQTPLNLSVTFGQPVSISCTSSQSLLDRDGETFMNWLFQRPGQSPKRLIYLVSKLDFGVPDRFTGSGSGTDFTLKISRVEAEDLGIYYCWQGTHFPLTFGGGTKLEIKRTVAAPSVFIFPPSDEQLKSGTASVVCLLNNFYPREAKVQWKVDNALQSGNSQESVTEQDSKDSTYSLSSTLTLSKADYEKHKVYACEVTHQGLSSPVTKSFNRGEC
Molecule B2 displayed a 293T-PD1 (%) in test [2] of 38.5%.
